Target: T1, N-terminally truncated eIF5B (residues 396-1002) with the point mutation T439A (S. cerevisiae, UniProt P39730 396-1002, T439A)
T1 sequence (looked up): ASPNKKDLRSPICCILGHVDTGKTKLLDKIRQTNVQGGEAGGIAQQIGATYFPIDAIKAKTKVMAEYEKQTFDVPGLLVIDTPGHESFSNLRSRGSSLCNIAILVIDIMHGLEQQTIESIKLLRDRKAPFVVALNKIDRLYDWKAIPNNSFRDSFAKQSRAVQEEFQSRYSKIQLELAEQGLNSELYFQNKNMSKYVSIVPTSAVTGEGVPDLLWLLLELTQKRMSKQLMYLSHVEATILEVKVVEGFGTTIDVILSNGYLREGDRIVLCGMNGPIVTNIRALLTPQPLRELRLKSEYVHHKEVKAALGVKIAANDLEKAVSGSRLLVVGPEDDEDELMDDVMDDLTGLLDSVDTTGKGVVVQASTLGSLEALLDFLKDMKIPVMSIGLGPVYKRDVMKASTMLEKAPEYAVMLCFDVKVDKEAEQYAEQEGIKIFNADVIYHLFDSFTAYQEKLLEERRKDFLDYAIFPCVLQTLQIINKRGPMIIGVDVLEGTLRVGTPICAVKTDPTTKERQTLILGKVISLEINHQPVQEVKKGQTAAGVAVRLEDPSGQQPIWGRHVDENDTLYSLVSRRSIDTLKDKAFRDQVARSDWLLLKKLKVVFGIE
Test: cryo-EM structure

B1: ribosomal protein S23 (the yeast orthologue of bacterial protein S12) (natural protein, UniProt P0CX29 1-145, looked up)
chain: MGKGKPRGLNSARKLRVHRRNNRWAENNYKKRLLGTAFKSSPFGGSSHAKGIVLEKLGIESKQPNSAIRKCVRVQLIKNGKKVTAFVPNDGCLNFVDENDEVLLAGFGRKGKAKGDIPGVRFKVVKVSGVSLLALWKEKKEKPRS
  binding result: binds
